Measurements reported in paper PMC3130806.

Experiments:
[1] = molecular target: FITC-labeled native contortrostatin (Agkistrodon contortrix contortrix); test: fluorescence polarisation
[2] = molecular target: FITC-labeled vicrostatin (Agkistrodon contortrix contortrix | not stated); test: fluorescence polarisation

Substance	Kd [1] [nM]	Kd [2] [nM]
purified soluble αvβ5 integrin (from UniProt P06756 31-1048; P18084 24-719) (receptor)	19.5	41.2
soluble recombinant α5β1 integrin (from UniProt P08648 42-1049; P05556 21-728) (receptor)	191	15.2
purified soluble αvβ3 integrin (from UniProt P06756 31-1048; P05106 27-718) (receptor)	6.6	7.4
